According to US20220040297A1 (Chugai, published 2022):

Molecular target: T1, CD3ε homodimer protein (human, UniProt P07766 23-126, limits assumed, sulfo-tag or biotin label in some ECL assays)
T1 construct: also called human CD3ε homodimer protein; CD3 (CD3ε)
Test: SPR, CD3ε homodimer on chip;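 further: biacore SPR with antibody variants flowed as analyte over amine-coupled CD3ε homodimer on a CM chip, bound amount of each single-residue H chain variant over that of parent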

T1 sequence (P07766 23-126 limits assumed): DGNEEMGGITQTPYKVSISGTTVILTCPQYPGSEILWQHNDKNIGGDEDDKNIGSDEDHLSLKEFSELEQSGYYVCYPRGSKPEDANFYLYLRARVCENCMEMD

Binder | ratio of amounts bound vs CE115HA000
CE115HA000 D101I (antibody, name in Kabat numbering, V domains shown) VH: QVQLVESGGGVVQPGRSLRLSCAASGFTFSNAWMHWVRQAPGKGLEWVAQIKAKSNNYATYYAESVKGRFTISRDDSKNSLYLQMNSLKTEDTAVYYCRYVHYGAYYGVIAWGQGTTVTVSS VL: DIVMTQSPLSLPVTPGEPASISCRSSQSLVHSNRNTYLHWYQQKPGQAPRLLIYKVSNRFSGVPDRFSGSGSGTDFTLKISRVEAEDVGVYYCGQGTQVPYTFGQGTKLEIK | 1.18
CE115HA000 E61P (antibody, name in Kabat numbering, V domains shown) VH: QVQLVESGGGVVQPGRSLRLSCAASGFTFSNAWMHWVRQAPGKGLEWVAQIKAKSNNYATYYAPSVKGRFTISRDDSKNSLYLQMNSLKTEDTAVYYCRYVHYGAYYGVDAWGQGTTVTVSS VL: DIVMTQSPLSLPVTPGEPASISCRSSQSLVHSNRNTYLHWYQQKPGQAPRLLIYKVSNRFSGVPDRFSGSGSGTDFTLKISRVEAEDVGVYYCGQGTQVPYTFGQGTKLEIK | 1.07
CE115HA000 G98Y (antibody, name in Kabat numbering, V domains shown) VH: QVQLVESGGGVVQPGRSLRLSCAASGFTFSNAWMHWVRQAPGKGLEWVAQIKAKSNNYATYYAESVKGRFTISRDDSKNSLYLQMNSLKTEDTAVYYCRYVHYYAYYGVDAWGQGTTVTVSS VL: DIVMTQSPLSLPVTPGEPASISCRSSQSLVHSNRNTYLHWYQQKPGQAPRLLIYKVSNRFSGVPDRFSGSGSGTDFTLKISRVEAEDVGVYYCGQGTQVPYTFGQGTKLEIK | 2.22
CE115HA000 D101M (antibody, name in Kabat numbering, V domains shown) VH: QVQLVESGGGVVQPGRSLRLSCAASGFTFSNAWMHWVRQAPGKGLEWVAQIKAKSNNYATYYAESVKGRFTISRDDSKNSLYLQMNSLKTEDTAVYYCRYVHYGAYYGVMAWGQGTTVTVSS VL: DIVMTQSPLSLPVTPGEPASISCRSSQSLVHSNRNTYLHWYQQKPGQAPRLLIYKVSNRFSGVPDRFSGSGSGTDFTLKISRVEAEDVGVYYCGQGTQVPYTFGQGTKLEIK | 1.2
CE115HA000 E61Q (antibody, name in Kabat numbering, V domains shown) VH: QVQLVESGGGVVQPGRSLRLSCAASGFTFSNAWMHWVRQAPGKGLEWVAQIKAKSNNYATYYAQSVKGRFTISRDDSKNSLYLQMNSLKTEDTAVYYCRYVHYGAYYGVDAWGQGTTVTVSS VL: DIVMTQSPLSLPVTPGEPASISCRSSQSLVHSNRNTYLHWYQQKPGQAPRLLIYKVSNRFSGVPDRFSGSGSGTDFTLKISRVEAEDVGVYYCGQGTQVPYTFGQGTKLEIK | 1.07
CE115HA000 D101Q (antibody, name in Kabat numbering, V domains shown) VH: QVQLVESGGGVVQPGRSLRLSCAASGFTFSNAWMHWVRQAPGKGLEWVAQIKAKSNNYATYYAESVKGRFTISRDDSKNSLYLQMNSLKTEDTAVYYCRYVHYGAYYGVQAWGQGTTVTVSS VL: DIVMTQSPLSLPVTPGEPASISCRSSQSLVHSNRNTYLHWYQQKPGQAPRLLIYKVSNRFSGVPDRFSGSGSGTDFTLKISRVEAEDVGVYYCGQGTQVPYTFGQGTKLEIK | 2.25
CE115HA000 G98F (antibody, name in Kabat numbering, V domains shown) VH: QVQLVESGGGVVQPGRSLRLSCAASGFTFSNAWMHWVRQAPGKGLEWVAQIKAKSNNYATYYAESVKGRFTISRDDSKNSLYLQMNSLKTEDTAVYYCRYVHYFAYYGVDAWGQGTTVTVSS VL: DIVMTQSPLSLPVTPGEPASISCRSSQSLVHSNRNTYLHWYQQKPGQAPRLLIYKVSNRFSGVPDRFSGSGSGTDFTLKISRVEAEDVGVYYCGQGTQVPYTFGQGTKLEIK | 1.58
CE115HA000 D101P (antibody, name in Kabat numbering, V domains shown) VH: QVQLVESGGGVVQPGRSLRLSCAASGFTFSNAWMHWVRQAPGKGLEWVAQIKAKSNNYATYYAESVKGRFTISRDDSKNSLYLQMNSLKTEDTAVYYCRYVHYGAYYGVPAWGQGTTVTVSS VL: DIVMTQSPLSLPVTPGEPASISCRSSQSLVHSNRNTYLHWYQQKPGQAPRLLIYKVSNRFSGVPDRFSGSGSGTDFTLKISRVEAEDVGVYYCGQGTQVPYTFGQGTKLEIK | 0.2
CE115HA000 G65D (antibody, name in Kabat numbering, V domains shown) VH: QVQLVESGGGVVQPGRSLRLSCAASGFTFSNAWMHWVRQAPGKGLEWVAQIKAKSNNYATYYAESVKDRFTISRDDSKNSLYLQMNSLKTEDTAVYYCRYVHYGAYYGVDAWGQGTTVTVSS VL: DIVMTQSPLSLPVTPGEPASISCRSSQSLVHSNRNTYLHWYQQKPGQAPRLLIYKVSNRFSGVPDRFSGSGSGTDFTLKISRVEAEDVGVYYCGQGTQVPYTFGQGTKLEIK | 0.76
CE115HA000 G98Q (antibody, name in Kabat numbering, V domains shown) VH: QVQLVESGGGVVQPGRSLRLSCAASGFTFSNAWMHWVRQAPGKGLEWVAQIKAKSNNYATYYAESVKGRFTISRDDSKNSLYLQMNSLKTEDTAVYYCRYVHYQAYYGVDAWGQGTTVTVSS VL: DIVMTQSPLSLPVTPGEPASISCRSSQSLVHSNRNTYLHWYQQKPGQAPRLLIYKVSNRFSGVPDRFSGSGSGTDFTLKISRVEAEDVGVYYCGQGTQVPYTFGQGTKLEIK | 1.23
CE115HA000 G65E (antibody, name in Kabat numbering, V domains shown) VH: QVQLVESGGGVVQPGRSLRLSCAASGFTFSNAWMHWVRQAPGKGLEWVAQIKAKSNNYATYYAESVKERFTISRDDSKNSLYLQMNSLKTEDTAVYYCRYVHYGAYYGVDAWGQGTTVTVSS VL: DIVMTQSPLSLPVTPGEPASISCRSSQSLVHSNRNTYLHWYQQKPGQAPRLLIYKVSNRFSGVPDRFSGSGSGTDFTLKISRVEAEDVGVYYCGQGTQVPYTFGQGTKLEIK | 0.78
CE115HA000 D101V (antibody, name in Kabat numbering, V domains shown) VH: QVQLVESGGGVVQPGRSLRLSCAASGFTFSNAWMHWVRQAPGKGLEWVAQIKAKSNNYATYYAESVKGRFTISRDDSKNSLYLQMNSLKTEDTAVYYCRYVHYGAYYGVVAWGQGTTVTVSS VL: DIVMTQSPLSLPVTPGEPASISCRSSQSLVHSNRNTYLHWYQQKPGQAPRLLIYKVSNRFSGVPDRFSGSGSGTDFTLKISRVEAEDVGVYYCGQGTQVPYTFGQGTKLEIK | 1.33
CE115HA000 D101T (antibody, name in Kabat numbering, V domains shown) VH: QVQLVESGGGVVQPGRSLRLSCAASGFTFSNAWMHWVRQAPGKGLEWVAQIKAKSNNYATYYAESVKGRFTISRDDSKNSLYLQMNSLKTEDTAVYYCRYVHYGAYYGVTAWGQGTTVTVSS VL: DIVMTQSPLSLPVTPGEPASISCRSSQSLVHSNRNTYLHWYQQKPGQAPRLLIYKVSNRFSGVPDRFSGSGSGTDFTLKISRVEAEDVGVYYCGQGTQVPYTFGQGTKLEIK | 0.79
CE115HA000 E61D (antibody, name in Kabat numbering, V domains shown) VH: QVQLVESGGGVVQPGRSLRLSCAASGFTFSNAWMHWVRQAPGKGLEWVAQIKAKSNNYATYYADSVKGRFTISRDDSKNSLYLQMNSLKTEDTAVYYCRYVHYGAYYGVDAWGQGTTVTVSS VL: DIVMTQSPLSLPVTPGEPASISCRSSQSLVHSNRNTYLHWYQQKPGQAPRLLIYKVSNRFSGVPDRFSGSGSGTDFTLKISRVEAEDVGVYYCGQGTQVPYTFGQGTKLEIK | 0.91
CE115HA000 G98H (antibody, name in Kabat numbering, V domains shown) VH: QVQLVESGGGVVQPGRSLRLSCAASGFTFSNAWMHWVRQAPGKGLEWVAQIKAKSNNYATYYAESVKGRFTISRDDSKNSLYLQMNSLKTEDTAVYYCRYVHYHAYYGVDAWGQGTTVTVSS VL: DIVMTQSPLSLPVTPGEPASISCRSSQSLVHSNRNTYLHWYQQKPGQAPRLLIYKVSNRFSGVPDRFSGSGSGTDFTLKISRVEAEDVGVYYCGQGTQVPYTFGQGTKLEIK | 2.83
CE115HA000 G98P (antibody, name in Kabat numbering, V domains shown) VH: QVQLVESGGGVVQPGRSLRLSCAASGFTFSNAWMHWVRQAPGKGLEWVAQIKAKSNNYATYYAESVKGRFTISRDDSKNSLYLQMNSLKTEDTAVYYCRYVHYPAYYGVDAWGQGTTVTVSS VL: DIVMTQSPLSLPVTPGEPASISCRSSQSLVHSNRNTYLHWYQQKPGQAPRLLIYKVSNRFSGVPDRFSGSGSGTDFTLKISRVEAEDVGVYYCGQGTQVPYTFGQGTKLEIK | 1.03
CE115HA000 E61A (antibody, name in Kabat numbering, V domains shown) VH: QVQLVESGGGVVQPGRSLRLSCAASGFTFSNAWMHWVRQAPGKGLEWVAQIKAKSNNYATYYAASVKGRFTISRDDSKNSLYLQMNSLKTEDTAVYYCRYVHYGAYYGVDAWGQGTTVTVSS VL: DIVMTQSPLSLPVTPGEPASISCRSSQSLVHSNRNTYLHWYQQKPGQAPRLLIYKVSNRFSGVPDRFSGSGSGTDFTLKISRVEAEDVGVYYCGQGTQVPYTFGQGTKLEIK | 1.09
CE115HA000 D101Y (antibody, name in Kabat numbering, V domains shown) VH: QVQLVESGGGVVQPGRSLRLSCAASGFTFSNAWMHWVRQAPGKGLEWVAQIKAKSNNYATYYAESVKGRFTISRDDSKNSLYLQMNSLKTEDTAVYYCRYVHYGAYYGVYAWGQGTTVTVSS VL: DIVMTQSPLSLPVTPGEPASISCRSSQSLVHSNRNTYLHWYQQKPGQAPRLLIYKVSNRFSGVPDRFSGSGSGTDFTLKISRVEAEDVGVYYCGQGTQVPYTFGQGTKLEIK | 6.49
CE115HA000 G98T (antibody, name in Kabat numbering, V domains shown) VH: QVQLVESGGGVVQPGRSLRLSCAASGFTFSNAWMHWVRQAPGKGLEWVAQIKAKSNNYATYYAESVKGRFTISRDDSKNSLYLQMNSLKTEDTAVYYCRYVHYTAYYGVDAWGQGTTVTVSS VL: DIVMTQSPLSLPVTPGEPASISCRSSQSLVHSNRNTYLHWYQQKPGQAPRLLIYKVSNRFSGVPDRFSGSGSGTDFTLKISRVEAEDVGVYYCGQGTQVPYTFGQGTKLEIK | 1
CE115HA000 G98D (antibody, name in Kabat numbering, V domains shown) VH: QVQLVESGGGVVQPGRSLRLSCAASGFTFSNAWMHWVRQAPGKGLEWVAQIKAKSNNYATYYAESVKGRFTISRDDSKNSLYLQMNSLKTEDTAVYYCRYVHYDAYYGVDAWGQGTTVTVSS VL: DIVMTQSPLSLPVTPGEPASISCRSSQSLVHSNRNTYLHWYQQKPGQAPRLLIYKVSNRFSGVPDRFSGSGSGTDFTLKISRVEAEDVGVYYCGQGTQVPYTFGQGTKLEIK | 0.26
CE115HA000 G98A (antibody, name in Kabat numbering, V domains shown) VH: QVQLVESGGGVVQPGRSLRLSCAASGFTFSNAWMHWVRQAPGKGLEWVAQIKAKSNNYATYYAESVKGRFTISRDDSKNSLYLQMNSLKTEDTAVYYCRYVHYAAYYGVDAWGQGTTVTVSS VL: DIVMTQSPLSLPVTPGEPASISCRSSQSLVHSNRNTYLHWYQQKPGQAPRLLIYKVSNRFSGVPDRFSGSGSGTDFTLKISRVEAEDVGVYYCGQGTQVPYTFGQGTKLEIK | 1.1
